{"source": "paper PMC6160459", "about": "(Scientific Reports, 2018)", "binders": {"B1": {"name": "Natalizumab (antibody, V domains shown)", "VH": "QVQLVQSGAEVKKPGASVKVSCKASGFNIKDTYIHWVRQAPGQRLEWMGRIDPANGYTKYDPKFQGRVTITADTSASTAYMELSSLRSEDTAVYYCAREGYYGNYGVYAMDYWGQGTLVTVSS", "VL": "DIQMTQSPSSLSASVGDRVTITCKTSQDINKYMAWYQQTPGKAPRLLIHYTSALQPGIPSRFSGSGSGRDYTFTISSLQPEDIATYYCLQYDNLWTFGQGTKVEIK", "notes": "humanized heavy-chain variable region; light chain; IgG4; also called Tysabri; source: obtained from the UCSD Moores Cancer Center Pharmacy"}}, "molecular_target": "T1, α4 integrin (CD49d) on JeKo-1 cells (Homo sapiens, endogenous on JeKo-1 cells, UniProt P13612)", "T1 construct": "integrin alpha-4 (CD49d); also called α4 chain of α4β1 integrin (VLA-4) and α4β7 integrin (LPAM-1); source: endogenous, on JeKo-1 cells", "test": "flow cytometry on cells; Ntz-01 premixed with natalizumab 1 h on ice in 5% FBS/DPBS/0.05% NaN3, then CD49d+ JeKo-1 cells 20 m on ice; cell-bound natalizumab detected with anti-human IgG4 Fc Alexa Fluor 647", "conditions": "one partner purified"}
{"binder": "B1", "values": [{"measurement": "binding result", "value": "binds"}]}
